Substitutions are numbered along the chain they refer to.
T1: recombinant rat HMGB-1 labelled with europium (rat, UniProt P63159 1-215, limits assumed, Eu label, molar ratio HMGB-1 to Eu 1:5)
T1 construct: also called Europium-labeled HMGB-1
T1 sequence (looked up): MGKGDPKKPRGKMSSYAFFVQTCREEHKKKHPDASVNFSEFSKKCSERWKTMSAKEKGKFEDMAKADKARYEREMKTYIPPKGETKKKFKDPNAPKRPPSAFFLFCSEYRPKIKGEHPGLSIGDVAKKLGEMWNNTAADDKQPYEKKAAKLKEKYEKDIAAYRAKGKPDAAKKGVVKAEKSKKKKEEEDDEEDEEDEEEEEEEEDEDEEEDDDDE

T2: HMG2 coated on ELISA plates (Bos taurus (Bovine), UniProt P40673 2-209)
T2 construct: also called HMGB2; HMBG2
T2 sequence: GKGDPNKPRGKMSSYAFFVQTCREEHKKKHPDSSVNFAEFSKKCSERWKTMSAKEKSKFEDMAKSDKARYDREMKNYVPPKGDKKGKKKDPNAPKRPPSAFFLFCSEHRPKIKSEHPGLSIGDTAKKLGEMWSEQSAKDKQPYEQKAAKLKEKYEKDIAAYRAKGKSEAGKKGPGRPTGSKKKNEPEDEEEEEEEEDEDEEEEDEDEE

T3: HMG1 purified from calf (bovine) thymus (bovine, UniProt P10103 2-215)
T3 construct: also called Calf thymus HMGB1; thymus HMG1
T3 sequence (looked up): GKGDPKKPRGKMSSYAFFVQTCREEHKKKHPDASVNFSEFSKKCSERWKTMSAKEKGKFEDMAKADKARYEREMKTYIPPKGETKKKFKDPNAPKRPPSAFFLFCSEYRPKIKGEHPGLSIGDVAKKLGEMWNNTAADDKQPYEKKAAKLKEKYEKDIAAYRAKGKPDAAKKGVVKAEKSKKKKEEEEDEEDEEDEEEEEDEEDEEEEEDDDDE

T4: HMG1 B Box peptide amino acids 150-183
T4 peptide: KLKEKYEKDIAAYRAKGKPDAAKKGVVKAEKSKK

T5: HMG1 B Box peptide amino acids 91-169
T5 construct: also called HMG1 peptide 91-169
T5 peptide: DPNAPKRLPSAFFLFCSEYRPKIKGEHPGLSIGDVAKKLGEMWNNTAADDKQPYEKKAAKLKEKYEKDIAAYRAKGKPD

T6: activated HMG1 from LPS stimulated THP-1 cells (human, UniProt P09429 1-215)
T6 sequence (looked up): T1 sequence (looked up) with D189E, E202D

B1: human anti-HMG1 antibody G2 (antibody, IgG1, V domains shown)
VH: EVQLLESGGGLVQPGGSLRLSCAASGFTFSWYKMQWVRQAPGKGLEWVSGISPSGGSTAYADSVKGRFTISRDNSKNTLYLQMNSLRAEDTAVYYCAKMGLFNTGNSYVDYWGQGTLVTVSS
VL: AQSELTQPPSVSEAPGQRVTISCSGSTSNIGNNAVIWYQQLPGKAPKLLIYYDDLLPSGVSDRFSGSKSGTSGSLAISGLQSEDEADYYCASWDDNLNGPLFGGGTKLTVL
notes: full length IgG1 made from a human Fab phage clone
B2: human anti-HMG1 antibody S2 (antibody, V domains shown)
VH: EVQLLESGGGLVQPGGSLRLSCAASGFTFSGYMMVWVRQAPGKGLEWVSRISPSGGQTGYADSVKGRFTISRDNSKNTLYLQMNSLRAEDTAVYYCAREEGGSYGAFDIWGQGTMVTVSS
VL: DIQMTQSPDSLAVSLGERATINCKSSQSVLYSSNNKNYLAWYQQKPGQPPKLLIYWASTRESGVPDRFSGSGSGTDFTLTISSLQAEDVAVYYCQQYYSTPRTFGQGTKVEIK
notes: full length IgG1 made from a human Fab phage clone; also called ATCC PTA-6142
B3: human anti-HMG1 antibody S17 (antibody, IgG1, V domains shown)
VH: EVQLLESGGGLVQPGGSLRLSCAASGFTFSYYDMHWVRQAPGKGLEWVSRISPSGGYTWYADSVKGRFTISRDNSKNTLYLQMNSLRAEDTAVYYCTRGRYTSGWHEYFDPWGQGTLVTVSS
VL: DIQMTQSPSSLSASVGDRVTITCRASQSIGTYLNWYQQKPGTAPKVLIYAASSLQSGVPSRFSGSGSGTDFTLTISSLQPEDFSTYYCQQSYNTPRTFGQGTKLEIK
notes: as for B1

What was measured:
[1] = molecular target: T1, recombinant rat HMGB-1 labelled with …; assay: inhibition of binding of 2 nM Eu-labelled recombinant rat HMGB-1 to THP-1 cells
Description: HMG1 binding to THP-1 Cells: Recombinant rat HMGB-1 was labeled using Eu-labelling Kit from PerkinElmer. Molar ratio of HMGB-1 to Eu is 1:5. THP-1 were cultured as the protocol from ATCC. Cells were harvested and suspended at concentration 1×10⁶/ml in assay buffer containing 1×DELFIA L*R binding buffer (PerkinElmer), 50% of DELFIA stabilizer (PerkinElmer) and 0.05% of sodium azide. 100 μl of cells (1×10⁵) was added into wells in 96 well cell culture plate. The plate was incubated with gentle shaking at 4° C. for one hour. 100 μl of assay buffer containing 2 nM of Europium-labeled HMGB-1 mixed with various concentrations (333, 166.5, 83.25, 41.6, 20.8, 10.4 and 5.2 nM) of human anti-HMGB1 antibodies E11 or G2 or soluble human RAGE-Fc, were added into each wells respectively. After one hour incubation with gentle shaking at 4° C., the cells were washed four times with 1×L*R wash buffer (PerkinElmer) by centrifuging at 1200 rpm×5 min. 200 μl of enhancement solution was added into each well to dissociate and enhance Eu fluorescence at 615 nm. The fluorescence was measured with Wallac Victor Fluorometer. Assay was performed in triplicate and human antibody R3-47 was used the negative isotype control.

[2] = molecular target: T2, HMG2 coated on ELISA plates; assay: direct ELISA, HMGB2 coated at 5 ug/mL, OD 490
Description: (§1) Binding to HMG1 vs. HMG2: Ultra high-binding ELISA plates (ThermoLab systems, #3855) were coated with either 5 ug/mL of Calf thymus HMGB1 or HMBG2 diluted in 10 mM Phosphate buffered saline (PBS), pH 7.2 and incubate overnight at 4 degrees. The plates were washed twice with Ca and Mg free PBS and 100 microliters of anti-HMGB1 antibody diluted in 10 mM PBS, pH 7.2+1% bovine serum albumin (BSA) to a final concentration of 10 ug/mL was added to each well and the plates were incubated 1 hour at room temperature. The wells were washed three times with 100 μl of PBS, pH 7.2. HRP labeled goat-anti-human IgG Kappa-chain (KPL, #14-10-10) and goat-anti-human IgG Lambda-chain (KPL, #14-10-11) were diluted in 10 mM PBS+1% BSA 1:1000 and 100 μl were added to each well and incubated for 1 hour at room temperature. The wells were then washed three times with 100 μl of PBS, pH 7.2. OPD substrate (Pierce chemical company, #34006) was prepared following the manufacturers instructions and 100 μl of prepared substrate was added to each well and the plates incubated at room temperature in the dark for 20-30 minutes. The reaction was stopped with the addition of 100 μl of 2M H₂SO₄, and the plates read on a plate reader at a wavelength of 490 nm.

[3] = molecular target: T3, HMG1 purified from calf (bovine) thymus; assay: direct ELISA, calf thymus HMGB1 coated at 5 ug/mL, antibody at 10 ug/mL, anti-human kappa/lambda-HRP, OD 490
Description: as §1

[4] = molecular target: T7, recombinant HMG1 produced in E. coli as a calmodulin binding protein (CBP) fusion (human); assay: cell-based or functional assay
T7 sequence (P09429 whole entry, the tested form may be a part): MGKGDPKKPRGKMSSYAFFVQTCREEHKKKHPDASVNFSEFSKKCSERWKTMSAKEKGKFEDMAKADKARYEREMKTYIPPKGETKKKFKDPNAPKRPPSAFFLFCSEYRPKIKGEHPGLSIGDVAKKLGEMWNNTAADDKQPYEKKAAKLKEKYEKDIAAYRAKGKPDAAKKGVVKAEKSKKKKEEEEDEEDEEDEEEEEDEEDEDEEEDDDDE

[5] = molecular target: T7, recombinant HMG1 produced in E. coli as …; assay: BIAcore 3000, mAb amine-coupled to CM5, HMG1 injected, steady-state model
Description: HMG1 Binding Affinity via BIAcore Analysis: All experiments were performed on a BIAcore 3000 instrument (BIAcore, Inc., Piscataway, N.J.). Briefly, each mAb was immobilized to a CM5 sensor chip using a standard amine coupling chemistry. Separately a reference (control) flow cell was also prepared. Two-fold, serial dilutions of HMG1 in instrument buffer were sequentially injected at a slow flow rate over the individual mAb and reference flow-cell surfaces. Following the binding and dissociation of HMG1, the mAbs surfaces were regenerated with a brief pulse of 1M NaCl-50 mM NaOH. At the end of each experiment, the binding curves were evaluated using a steady-state model available through the BIAevaluation software supplied by BIAcore, Inc. (Piscataway, N.J.).

[6] = molecular target: T4, HMG1 B Box peptide amino acids 150-183; assay: ELISA, HMG1 B Box peptide 150-183 coated at 10 ug/ml, antibody titrated, OD 450
Description: (§2) The plate was then blocked with 4% milk powder dissolved in PBS at 37° C. for 1 hour. The blocking solution was removed and replaced with human anti-HMG1 antibodies at various concentrations (see FIGS. 5A-B). […] HRP activity was detected with Sureblue HRP substrate (KPL). Plates were read at 450 nm using a Kinetic Microplate Reader (Molecular Devices). […] After washing and blocking with 1% BSA in PBS, the biotinylated peptides were individually added into the avidin coated wells and incubated for 30 min at room temperature. The serial diluted antibody G4, S16 and S6 at the initial concentration at 10 μg/ml were then transferred into the wells followed by adding mouse anti human IgG-HRP conjugate (Pierce). Detection was accomplished by adding 50 μl of tetramethylbenzidine (TMB) substrate (KPL) and the absorbance was read at 450 nm.

[7] = molecular target: T5, HMG1 B Box peptide amino acids 91-169; assay: ELISA, HMG1 B Box peptide 91-169 coated at 10 ug/ml, antibody titrated, OD 450
Description: as §2

[8] = molecular target: T7, recombinant HMG1 produced in E. coli as …; assay: sandwich ELISA: antibody titrated and captured on anti-human IgG Fc, soluble recombinant HMG1 at 2 ug/ml, mouse anti-HMGB1 and anti-mouse IgG-HRP, OD 450
Description: Sandwich ELISA (soluble HMG1): Immunoplates (EIA/RIA plate, High binding, Costar) were coated with anti human IgG Fc at 10 μg/ml in PBS (pH 7.2) and incubated at 4° C. overnight. The coating reagent was removed and the plates were rinsed briefly with PBS. The plates were then blocked with 4% milk for 1 hour at 37° C. and rinsed with PBS. The anti-HMG1 antibodies were diluted in 4% milk. For serial dilutions, the antibodies were used at a starting concentration of 20 μg/ml. The diluted anti-HMG1 antibodies were then added into plate and incubated for 1 hr at 37° C. The plate was then washed 10 times with PBST (PBS/0.1% tween 20) and incubate with antigen (HMGB1, 2 μg/ml; or 0.7 μg/ml for native HMGB1) in 4% milk and incubated at 37° C. for 1 h. The plate was then wash 10 times and incubated with mouse anti-HMGB1, 1 μg/ml in 4% milk at 37° C. for 1 h. The plate was washed 10 times and incubated with anti-mouse IgG-HRP at 1:1000 at 37° C. for 1 h. The plate was then washed and developed. HRP activity was detected with Sureblue HRP substrate (KPL). Plates were read at 450 nm using a Kinetic Microplate Reader (Molecular Devices).

[9] = molecular target: T7, recombinant HMG1 produced in E. coli as …; assay: ELISA, coated RAGE-Fc, rHMG1 preincubated with antibody
Description: HMG1 binding to RAGE-Ig by ELISA: 50 μl/well of RAGE-Fc fusion protein at 5 μg/ml in PBS was added to each well of an ELISA plate and incubated overnight at 4° C. The plate was then blocked with 200 μl of 5% milk at 37° C. for 1 hr and washed 3× with PBS/Tween. 50 μl/well of diluted HMGB1 solution. For dose curves, HMGB1 concentrations started at 4 ug/ml in PBS. For antibody blocking the HMGB1 was preincubated in another plate with human anti-HMG1 antibodies or buffer, then transferred to the RAGE-coated plate. The plates were then incubated at room temperature for 2 hours and washed 3×. To detect any HMG1 bound to the immobilized RAGE-Fc a mixture of biotinylated mouse anti-HMG1 mAbs (10D4, 4H11, 3E10 and 5C12) each at 1 ug/ml, total Ab: 4 ug/ml, were added to each well and the plate was incubated for 1 hour at room temperature. The plate was then washed and Strepavidin-HPR was added to each well and incubated 15 min. The plate was then washed 3× and blotted dry. 100 μl of TMB developing agent was added and the plate read at 650 nm. Values were calculated as percent of inhibition with HMG1 alone equal to 0% inhibition. The data in FIG. 9 and summarized in Table 1 represent the average of two separate experiments.

[10] = molecular target: T6, activated HMG1 from LPS stimulated …; assay: cell-based or functional assay

| Binder | IC50 [1] [nM] | binding result [2] | binding result [3] | IC50 IL-1β [4] [µg/mL] | IC50 IL-6 [4] [nM] | IC50 IL-12 [4] [µg/mL] | IC50 TNF-α [4] [µg/mL] | Kd [5] [nM] | binding result [6] | binding result [7] | EC50 (read off the curve) [8] [µg/mL] | percent inhibition of HMG1 binding to RAGE [9] [%] | IC50 nm IL-6 Native HMGB [10] [nM] | IC50 NO [4] [µg/mL] |
| --- | --- | --- | --- | --- | --- | --- | --- | --- | --- | --- | --- | --- | --- | --- |
| B1 | 73.3 | no binding (tested: 10 ug/mL (single concentration)) | binds | 5.03 | 0.994 | 1.26 | 1.35 | 101 | no binding (tested: 10 ug/ml (log 1.0)) | no binding (tested: 10 ug/ml (log 1.0)) |  |  |  |  |
| B2 |  | no binding (tested: 10 ug/mL (single concentration)) | binds | 0.22 | 0.163 |  | 0.0642 | 36 | no binding (tested: 10 ug/ml (log 1.0)) | no binding (tested: 10 ug/ml (log 1.0)) | ~0.08 | ≥ 35 |  |  |
| B3 |  | no binding (tested: 10 ug/mL (single concentration)) | binds | 0.0809 | 0.162 |  |  | 331 | no binding (tested: 10 ug/ml (log 1.0)) | no binding (tested: 10 ug/ml (log 1.0)) |  |  | 11.4 | 41.7 |

— patent US20110287023A1 (AstraZeneca / MedImmune, published 2011)
